The target in data set [1] is T1, TR4_(341–596), ligand-binding domain of human testicular receptor 4 (human, UniProt P49116 341-596).
T1 sequence (looked up): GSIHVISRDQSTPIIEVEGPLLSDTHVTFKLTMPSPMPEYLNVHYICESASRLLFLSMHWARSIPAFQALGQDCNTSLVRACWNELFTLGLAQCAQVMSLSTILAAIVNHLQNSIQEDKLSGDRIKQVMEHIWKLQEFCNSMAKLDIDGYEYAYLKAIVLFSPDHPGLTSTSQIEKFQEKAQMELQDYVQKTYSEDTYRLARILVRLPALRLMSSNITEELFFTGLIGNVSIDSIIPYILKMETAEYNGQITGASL
Nature of the data set: crystal structure.

The target in another data set is T2, TR4DBD (Homo sapiens, UniProt P49116 113-189).
T2 sequence: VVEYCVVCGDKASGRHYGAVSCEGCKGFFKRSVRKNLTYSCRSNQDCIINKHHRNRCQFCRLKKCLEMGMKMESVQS
Nature of the data set: MST.

A further data set has as its target T3, TR4DBD-CTE R191A (Homo sapiens, UniProt P49116 113-200, R191A).
T3 sequence: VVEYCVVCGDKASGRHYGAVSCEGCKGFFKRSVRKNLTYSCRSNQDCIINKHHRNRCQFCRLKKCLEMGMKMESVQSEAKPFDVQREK
Nature of the data set: MST.

The target of a further data set is T4, TR4DBD-CTE S189A (Homo sapiens, UniProt P49116 113-200, S189A).
T4 sequence: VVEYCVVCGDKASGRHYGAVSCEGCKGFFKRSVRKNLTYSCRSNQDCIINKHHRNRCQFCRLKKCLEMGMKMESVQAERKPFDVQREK
The experiment in a line: MST.

The next data set has as its target T5, TR4DBD-CTE R168A (Homo sapiens, UniProt P49116 113-200, R168A).
T5 sequence: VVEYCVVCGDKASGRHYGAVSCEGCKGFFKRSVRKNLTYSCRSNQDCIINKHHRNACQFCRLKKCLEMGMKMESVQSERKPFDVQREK
The experiment in a line: MST.

The target in another data set is T6, TR4DBD-CTE N167K (Homo sapiens, UniProt P49116 113-200, N167K).
T6 sequence: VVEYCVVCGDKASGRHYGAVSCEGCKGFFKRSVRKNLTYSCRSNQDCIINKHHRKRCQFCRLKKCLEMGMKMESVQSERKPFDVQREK
Nature of the data set: MST.

A further data set has as its target T7, TR4DBD-CTE R127C (Homo sapiens, UniProt P49116 113-200, R127C).
T7 sequence: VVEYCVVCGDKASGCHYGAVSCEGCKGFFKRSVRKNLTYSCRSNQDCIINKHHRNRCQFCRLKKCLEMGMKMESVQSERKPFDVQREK
The experiment in a line: MST.

In general, Kd refers to the free concentration of one partner at which half of the binding sites on the other are occupied at equilibrium, for simple one-to-one binding. A higher Kd goes with weaker binding.

As for QQPTYVALSYINRFMTDAARREQES (domain or fragment, human, UniProt Q86VZ6 51-75, looked up) [JAZF1_(51–75)], the binding result in data set [1] is “binds”.

B1: 18 bp DR1 (dsDNA)
DNA 1: GGCAGAGGTCAAAGGTCA
DNA 2: CTGACCTTTGACCTCTGC
In the data set with TR4DBD, B1 gave a Kd of 38.3 µM.

B2: idRE, 23 bp DR1 (dsDNA)
DNA 1: GGCAGAGGTCAAAGGTCAAACGT
DNA 2: ACGTTTGACCTTTGACCTCTGCC
As for B2, the binding signal is roughly 60 fold decrease vs WT with TR4DBD-CTE R191A; 12 fold decrease vs WT with TR4DBD-CTE S189A; 12 fold decrease vs WT with TR4DBD-CTE R168A; greater than 60 fold increase vs WT with TR4DBD-CTE N167K; roughly 280 fold increase vs WT with TR4DBD-CTE R127C.

The values above are taken from publication PMC9943680 (Nucleic Acids Research, 2023).
